The record followed here is the DeepSol protein solubility set.

The nature of this data set: soluble on expression in E. coli; label from the status in PepcDB or PDB records.
For the sequence “MGSDKIHHHHHHAIKNCQIHTFSLSHDSVSGLDTVKFTIDQLTGRIFNIDSLPFGTKIEKVVCKIGFANSSVIGGVEASPEAYPDSTYYLSSLSDSIDFSAPVKFVVHAYDQVTTKVYMAQVNIHQVVPDSMVWSMYANPMIGITVKDQKVVTYDYNGSENYFMYVKPAESGKPYQLYYAPVSAPKGWQSLSLTGLPSDGLLISQITEYNNALYVPATNGTLYRSEDGLTWSAVENAPSVKYVLGSVKQGTKQPSALATIVDQEGKLAFYAMNESMEWIAGDAVPSGFPVTGFSNLQYAAMYHEYLMTASGRTVDNQVVNTTWATMDGISWALMASGDANFTKREGAMITNYDDKFFLIGGIDASNKALKDMYQSIDYGISWSLIDSMVVLPTDYAARGFSSIIVDKENFVNIFGGKISTGSNDLNQLWRGRINRLIPKE”, the “soluble on expression in E. coli” value is recorded as “not soluble”.

Take “MSLETVLVPVDFTIEKEDLLGCIGEFKNAGLKKVILLHVVDIHKSQGLAPMFERNAKKRIEDYTGFAEELGLETEALVVVGDIKRTISETADRKNVDAIIMGATAKGFIKGRFLGRTTEHIARSSKKILLVEKYDALKEGKEFYKNACRATFSRVLVPLDFSKESMKAIEQLQEFGGIVKEVLLLHVIDNIKDMDLLDEQREEAKGKLGRIKEQLTGIKSQYLVVEGIPSDEIVKFANIEEATMIMLTSRGKGDLIDLILGSTAESVLRKTIKPVLIIPASKEFDGEEGHHHHHH”: the “soluble on expression in E. coli” value is “soluble”.

Take “MGSDKIHHHHHHMLANQNVRARVQNHQLFSSLNEAQLAKIFATASLLHIKPEQMLFHQGELASRFYFVLAGTLQLFRTNVQGQMKVIEVVRSGCTFAEALMFNKQTRFPVSAQSVSECALVSFDSETYLQLLKHNPDACIAIMADLSVRIRKHINEVEMVSLQNAQHRLLLFLLRKMTVVGDNQGEITLDIPKRLLASRLSIQPETFSRLIKKMSQTGLIAESHGVIRIPDVALLYASTDISITQPTFNQQGPSSAIPLVCN”: the “soluble on expression in E. coli” value is on record as “not soluble”.

In the case of “MNLYRSRNFYARIRGDRALFTNPATKGGSERSSYSVPTRQALQGIIDGIYHKPTFTNVITEVKVVNQIQTELHGVRALLHDYSADLSYVSYLSDVEYLVKFHFIWNENREDLIQDRLPKKHEAIMERSIRKGGRRDIFLGTRECFGLVDEISQEEYETIPSYYNGVTIDLGIMFHSFAYPTSKDTPLKSYFTKTVMENGAIKFKPQSECEIVNTLSSYAFKSLGQLKSVDDEYVDDEYEEYEAMEKGEG”, the “soluble on expression in E. coli” value is recorded as “soluble”.

Regarding “MDNNEKEKSKSELLVVTGLSGAGKSLVIQCLEDMGYFCVDNLPPVLLPKFVELMEQGNPSLRKVAIAIDLRGKELFNSLVAVVDKVKSESDVIIDVMFLEASTEKLISRYKETRRAHPLMEQGKRSLINAINDEREHLSQIRSIANFVIDTTKLSPKELKERIRRYYEDEEFETFTINVTSFGFKHGIQMDADLVFDVRFLPNPYYVVDLRPLTGLDKDVYNYVMKWKETEIFFEKLTDLLDFMIPGYKKEGKSQLVIAIGCTGGQHRSVALAERLGNYLNEVFEYNVYVHHRDAHIESGEKK”, the “soluble on expression in E. coli” value was “not soluble”.

“MSLCDQKNDTLQGKQNNMTAFIKKIAASKESEETQRYVGNLNGIEIKLTYYYKGDIVLRQISEHKLLYKTLKANNKEEAQKMLSQVGEAYQGMPGLTERIDYYDSYATEYVDINFTQAKISDLCKLPGSSIDNCSAYYLSMIRSQKLLEESGYHRINEGHHHHHH”: the “soluble on expression in E. coli” value was “soluble”.

For the sequence “MSTDIDCIVIGAGVVGLAIARALAAGGHEVLVAEAAEGIGTGTSSRNSEVIHAGIYYPADSLKARLCVRGKHLLYEYCAARGVPHQRLGKLIVATSDAEASQLDSIARRAGANGVDDLQHIDGAAARRLEPALHCTAALVSPSTGIVDSHALMLAYQGDAENDGAQLVFHTPLIAGRVRPEGGFELDFGGAEPMTLSCRVLINAAGLHAPGLARRIEGIPRDSIPPEYLCKGSYFTLAGRAPFSRLIYPVPQHAGLGVHLTLDLGGQAKFGPDTEWIATEDYTLDPRRADVFYAAVRSYWPALPDGALAPGYTGIRPKISGPHEPAADFAISGPASHGVAGLVNLYGIESPGLTASLAIAEETLARLAALEHHHHHH”, the “soluble on expression in E. coli” value is “soluble”.

Turning to “MCDCLSIILLVKMKKIYLKFVDFWDGFDTISNFIVDALSIQYEVVLSNEPDYLFYSCFGTSHLEYDCIKIMFIGENIVPDFNVCDYAIGFNYIDFGDRYLRLPLYAIYDGFSNLQNKKIDVNKALDRKFCSIVVSNNKWADPIRETFFKLLSSYKKVDSGGRAWNNIGGPVDNKLDFISQYKFNIAFENSRVLGYTTEKIMEPMQVNSIPVYWGNPLVGKDFNVDSFVNAHDFDSLERLVEYIIELDSSKDKYLEMLEKPWLLDKTYLDWKQLLLNFINNIMMKSYKDAKYLVNYGHAGKYRNEQRFWGRCERKFKLQRIIEYYSQLFDRKLEHHHHHH”, the “soluble on expression in E. coli” value is on record as “not soluble”.

Turning to “MSLDHRKRESINDKNKMKVYTTVYAFQSLTQQIGGKYVDVQSIYPDGADLHSYEPTQKDMIDIAKSDLFVYSSHQLDPVAAKITNSMTNNSMKLALAEGLKQSDFIDSKGHDEDHEHHSHHEESNQDPHVWLDPVLNQKFAFMIKEKLIEKDPKHQAYYNKNYKMVNKDIVHIDQQLQSITKHSKRDKVVISHDSLGYLAHRYGFKQQGVKGMNDEEPSQKEILNIVKDIQHSHAPYVLYEQNITSKITDVIKKETDTKPLSFHNLAVLTKEEQNDDSISYQSLMKKNIYVLNRALNNEGHHHHHH”, the “soluble on expression in E. coli” value is recorded as “soluble”.

Take “MSLVIGYMESNKNNSKWKDILMDGEILQIENIFNGSHNKKNNGLIIFKIKDKLGNVNKLTFVSKSADMSIQVEKAERLIKKGSYYRHFKGNYYKVLYIAENSEDKEKVVVYQAMYGEKKVYVRPFKMFISKVDHCKYPEIEQEYRFMSISELENQFGTSVVASWNMQNIYVDHTIEGHHHHHH”: the “soluble on expression in E. coli” value was “not soluble”.

As for “MTLSFDDAAATVKTLKTSPSNDELLKLYALFKQGTVGDNTTDKPGMFDLKGKAKWSAWDEKKGLAKDDAQKAYVALVEELIAKYGA”, the “soluble on expression in E. coli” value was “soluble”.

Turning to “MKLTILRLEHFSAQDQIDLGKIWPEYSASSLSVDETHRIYAARFNERLLGAVRVTLSGTQGALDSLRVREITRRRGVGQYLVEEVIRDNPNVSSWWMADVGVEDRSVMAAFMQALGFTAQHDGWEKR”, the “soluble on expression in E. coli” value is on record as “not soluble”.

In the case of “MSLSNKSLTTGTAVDVLAGLPVKREASATGYSRTADFGAAWLDVDGNNCDTRNDILHRDLTDAVQRGGCKILSGTLNDKYSGESIHFVRGAKTSALVQVDHIVALKNAWVTGAQQLTQAQRVSFANDPLNLIAVDAHSNEQKSSGDAATWLPANKSSRCEYVARQISVKATYGLWVTPAEKSAMMDILADCSGQMAESSTFTEGHHHHHH”, the “soluble on expression in E. coli” value is given as “soluble”.

“MTGGFTPDSGRYHLYISHACPWAHRTMIFRTLKGLEDHITISAVHPDMLGEGWTFEPDDNGATGDTLYNSAFARDIYTRADPRFTGRVTVPILWDKQRETIVSNESSEIIRMFNAAFNGLTGNSDDYWPEPLRDAIAPVNERIYDTFNNGVYKAGFATTQQAYDAAIVPLFDTLDWLEERLSHNRYLMGDQLTEADWRLFTTLVRFDPVYHLHFKCNRKRIVDYPNLWGYTRELYQTPGVADTVNFDHIVRHYHYSHETINPNRIIPINPVLDFHRPHGRGLEHHHHHH”: the “soluble on expression in E. coli” value is “not soluble”.

In the case of “MTNMRQVLKTDRLVLEPQSMARFDQWFAMERQRDEAGHRDLTEDQAWLRLCARQGMWDAYACGFYYLLDPVSGEMRGEAGFQFRRRGFGPGFDNHPEAAWAVASAHQGRGLAAEAMQALLAHHDRSSGRQRVVALIARSNLPSLRLAERLGFRGYSDVAFDGAAHLLLERAG”, the “soluble on expression in E. coli” value is reported as “soluble”.

Regarding “MSLEDYSVVNRFESHGGGWGYSAHSVEAIRFSADTDILLGGLGLFGGRGEYTAKIKLFELGPDGGDHETDGDLLAETDVLAYDCAAREKYAMMFDEPVLLQAGWWYVAWARVSGPSSDCGSHGQASITTDDGVIFQFKSSKKSNNGTDVNAGQIPQLLYRLPTSDGSTSKGKQQTSEPVHILKRSFARTVSVECFESLLSILHWSWTTLVLGVEELRGLKGFQFTATLLDLERLRFVGTCCLRLLRVYTCEIYPVSATGKAVVEETSKLAECIGKTRTLLRKILSEGVDHCMVKLDNDPQGYLSQPLRLLEAVLQECHNTFTACFHSFYPTPALQWACLCDLLNCLDQEANFKTSSSRLLAAVMSALCHTSVKLTSLFPIAYDGEVLLRSIVKQVSTENDSTLVHRFPLLVGHMEKLSQSEENISGMTSFREVLEKMLVIVVLPVRNSLRRESELFSSHLVSNTCGLLASIVSELTASALGSEVDGLNSLHSVKASANRFTKTSQGRSWNTGNGSPDAICFAVDKPGIVVVGFAVYGGGGIHEYELEVLVDDSEHAGDSTHSHRWTSLELVKGTYTTDDSPSDIAEIRLDKVVPLKENVKYAVRLRNYGSRTANGDGGMTTVQCPDGVTFTFSTCSLSSNGTNQTRGQIPQILYYRSEEGHHHHHH”, the “soluble on expression in E. coli” value is reported as “not soluble”.

For the sequence “MSFVVIIPARYASTRLPGKPLVDINGKPMIVHVLERARESGAERIIVATDHEDVARAVEAAGGEVCMTRADHQSGTERLAEVVEKCAFSDDTVIVNVQGDEPMIPATIIRQVADNLAQRQVGMATLAVPIHNAEEAFNPNAVKVVLDAEGYALYFSRATIPWDRDRFAEGLETVGDNFLRHLGIYGYRAGFIRRYVNWQPSPLEHIEMLEQLRVLWYGEKIHVAVAQEVPGTGVDTPEDLERVRAEMRGSHHHHHH”, the “soluble on expression in E. coli” value is reported as “soluble”.

Turning to “MGSDKIHHHHHHMFNSEIKEKYLDTLSEGMVMQMRPIFAKAEITETLYNKDIYDFTSMQILELIRSFDQTTIGSVRRTLALLSLYIDWAISYKLSKGLTNLARTISEEELYECLGDKKLYITYSELEEMENQLVNYQSKAVLRLLFEEVSGLAHSELLSLTKKQVEDAMLNGNVLTLYDSKHGERKLKVSSECLVIALNAAQETKYKLKNGKAKGQTKEVFLVENDYVVKTKRTSNKGDGQASKFVITNLITDISEFFKINFLTPNTIVRSGHLYRAYQLYKEKGVIDNSVRYQIIDDFNLRVKSKYRAVYSMQDYINEEEVNKYYAEELGLKETTI”, the “soluble on expression in E. coli” value is listed as “not soluble”.

“FSAPIKAERTAFRRAVCANQYDAVIDAQGLVKSAALVTRLAHGIKHGMDWSTAREPLASLFYNRKHHIAKQQHAVERTRELFAKSLGYDKPQSQGDYAIAKHFLHCQQAVSDPYAVFLHATTRDDKHWPEANWRELIGLVGNTGLRIKLPWGAPHEEARAKRLAEGFDYVDVLPRMSLEEVARVLAGAKFVVSVDTGLSHLTAALDRPNITLYGPTDPGLIGGYGKNQ”: the “soluble on expression in E. coli” value is recorded as “not soluble”.

In the case of “MGSDKIHHHHHHMNIFDILRDYLLVQVDKYNLNMDMISIVSKSLSSKEAIGNTKRKDFPIIVGKEIMLEADFKGAKGQAFTSTPSTFEGSLKDILSLDLHDNPHDRSLFIASLNAVMKYLGKTDRTIHCKNNEPEVCAKKFPEFIKMEFGNPKVAIIGYQPAIIDNIKDFFETRVLDLNPEFVDTIQYNVKIEDGIRDYEDVISWADLVICTGSTLCNNSIINFLSLNKPVYYYGTTIAGASNILGLKRLCFCSK”, the “soluble on expression in E. coli” value is “not soluble”.

For “MELPPKVKNILLLDSEGKRVAVKYYSDDWPTNSAQEAFEKSVFTKTQKTNARTEVEVTALENNIVVYKFVQDLHFFVTGGEEENELILASVLEGLFDAVTLLLRSNVDKREALDNLDLIFLSFDEIIDGGIVLETDANVIAGKAGINSTDPNAPLSEQTISQALATAREHLTRSLMK”, the “soluble on expression in E. coli” value is “soluble”.

In the case of “MARFSSVLIYDGECPYCSVAAKALEQVDDIGAISWYDESAQSFLTAQFDEPPFAMVLVDRPAQQVYAGRAAAEELAGRAGLPDLVGSLVRDNYEKIAHVVGLASGRGREPDDVHERYVLADDAQDRFDTLAKDAVDRDIRADALEHHHHHH”, the “soluble on expression in E. coli” value is reported as “soluble”.
